Patent publication US20240400652A1
pKd: −log10 of the molar value. Read-outs that look alike come from different tables or passages of the source.

What was measured:
[1] = target: SARS-CoV-2 Spike protein on pseudotyped virus (SARS-CoV-2) (UniProt P0DTC2); test: cell-based or functional assay
[2] = target: SARS-CoV-2 Spike protein on pseudotyped virus (SARS-CoV-2) (UniProt P0DTC2); test: cell-based or functional assay; remark: listed apart in the source
[3] = target: Deglycosylated SARS-CoV-2 RBD (SARS-CoV-2) (UniProt P0DTC2)

Substance: S309 LS (antibody)
- IC50, neutralization of SARS-CoV-2pp, DBT-ACE2 cells [1]: 3.9 nM
- maximum neutralization, VSV pseudotype, 293T ACE2 cells [1]: 34%
- maximum neutralization, VSV pseudotype, A549-ACE2-TMPRSS2 clone 5 cells [1]: 65%
- maximum neutralization, VSV pseudotype, A549-ACE2-TMPRSS2 clone 10 cells [1]: 42%
- maximum neutralization, VSV pseudotype, Huh7 cells [1]: 78%
- maximum neutralization, VSV pseudotype, MRC5-ACE2-TMPRSS2 cells [1]: 45%
- maximum neutralization, VSV pseudotype, Vero E6-TMPRSS2 cells [1]: 96%
- maximum neutralization, VSV pseudotype, Vero E6 cells [1]: > 99%
- IC50, neutralization of SARS-CoV-2pp, DBT-ACE2 cells [2]: 3.82 nM

Substance: sotrovimab (antibody)
- EC50, neutralization of pseudotyped virus [1]: 0.0241 µg/mL

Substance: S306 G56A (as printed in Table 5) (antibody)
- pKd [3]: 9.15
- koff [3]: 0.00024 s⁻¹
- kon [3]: 340000 M⁻¹ s⁻¹
